# Test results from EP4527855A2.
# B1: Lead CXCR5 Antibody (humanized IgG4 anti-CXCR5 antibody comprising a heavy chain of SEQ ID NO: 25 and a light chain of SEQ ID NO: 26) (antibody, V domains shown)
# VH: QVQLKESGPGLVAPSESLSITCTVSGFSLIDYGVNWIRQPPGKGLEWLGVIWGDGTTYYNPSLKSRLSISKDNSKSQVFLKVTSLTTDDTAMYYCARIVYWGQGTLVTVSA
# VL: DIVMTQAAPSVAVTPGASVSISCRSSKSLLHSSGKTYLYWFLQRPGQSPQLLIYRLSSLASGVPDRFSGSGSGTAFTLRISRVEAEDVGVYYCMQHLEYPYTFGGGTKLEIKR
# Tests used:
# [1] = molecular target: 28mer peptide of the CXCR5 antigen; assay: Antigen ELISA, relative EC50 against the reference; 100 mg/mL formulation, -20°C study, initial
# [2] = molecular target: 28mer peptide of the CXCR5 antigen; assay: Antigen-ELISA on the 28mer CXCR5 peptide, relative EC50 against the current antibody standard; DS in PBS, release
# [3] = molecular target: 28mer peptide of the CXCR5 antigen; assay: Antigen ELISA, relative EC50 against the reference; 100 mg/mL formulation, 6 months at +5°C
# [4] = molecular target: 28mer peptide of the CXCR5 antigen; assay: Antigen-ELISA on the 28mer CXCR5 peptide, relative EC50 against the standard; DS in PBS, 3 months at 5°C
# [5] = molecular target: 28mer peptide of the CXCR5 antigen; assay: Antigen ELISA, relative EC50 against the reference; 100 mg/mL formulation, 18 months at -20°C
# [6] = molecular target: 28mer peptide of the CXCR5 antigen; assay: Antigen ELISA, relative EC50 against the reference; 100 mg/mL formulation, 15 months at +5°C
# [7] = molecular target: 28mer peptide of the CXCR5 antigen; assay: Antigen ELISA, relative EC50 against the reference; 100 mg/mL formulation, 6 months at +25°C/60% RH
# [8] = molecular target: 28mer peptide of the CXCR5 antigen; assay: Antigen ELISA, relative EC50 against the reference; 100 mg/mL formulation, 1 month at -20°C
# [9] = molecular target: 28mer peptide of the CXCR5 antigen; assay: Antigen ELISA, relative EC50 against the reference; 100 mg/mL formulation, 1 month at +5°C
# [10] = molecular target: 28mer peptide of the CXCR5 antigen; assay: Antigen ELISA, relative EC50 against the reference; 100 mg/mL formulation, 9 months at -20°C
# [11] = molecular target: 28mer peptide of the CXCR5 antigen; assay: Antigen ELISA, relative EC50 against the reference; 100 mg/mL formulation, +5°C study, initial
# [12] = molecular target: 28mer peptide of the CXCR5 antigen; assay: Antigen ELISA, relative EC50 against the reference; 100 mg/mL formulation, +25°C/60% RH study, initial
# [13] = molecular target: 28mer peptide of the CXCR5 antigen; assay: Antigen ELISA, relative EC50 against the reference; 100 mg/mL formulation, 12 months at +5°C
# [14] = molecular target: 28mer peptide of the CXCR5 antigen; assay: Antigen ELISA, relative EC50 against the reference; 100 mg/mL formulation, 6 months at -20°C
# [15] = molecular target: 28mer peptide of the CXCR5 antigen; assay: Antigen ELISA, relative EC50 against the reference; 100 mg/mL formulation, 9 months at +5°C
# [16] = molecular target: 28mer peptide of the CXCR5 antigen; assay: Antigen-ELISA on the 28mer CXCR5 peptide, relative EC50 against the standard; DS in PBS, 1 month at 5°C
# [17] = molecular target: 28mer peptide of the CXCR5 antigen; assay: Antigen ELISA, relative EC50 against the reference; 100 mg/mL formulation, 12 months at -20°C
# [18] = molecular target: 28mer peptide of the CXCR5 antigen; assay: Antigen ELISA, relative EC50 against the reference; 100 mg/mL formulation, 3 months at +5°C
# [19] = molecular target: 28mer peptide of the CXCR5 antigen; assay: Antigen-ELISA on the 28mer CXCR5 peptide, relative EC50 against the standard; DS in PBS, 1 month at 25°C
# [20] = molecular target: 28mer peptide of the CXCR5 antigen; assay: Antigen ELISA, relative EC50 against the reference; 100 mg/mL formulation, 3 months at +25°C/60% RH
# [21] = molecular target: 28mer peptide of the CXCR5 antigen; assay: Antigen-ELISA on the 28mer CXCR5 peptide, relative EC50 against the standard; DS in PBS, 3 months at -20°C
# [22] = molecular target: 28mer peptide of the CXCR5 antigen; assay: Antigen ELISA, relative EC50 against the reference; 100 mg/mL formulation, 1 month at +25°C/60% RH
# [23] = molecular target: 28mer peptide of the CXCR5 antigen; assay: Antigen ELISA, relative EC50 against the reference; 100 mg/mL formulation, 3 months at -20°C
# [24] = molecular target: 28mer peptide of the CXCR5 antigen; assay: Antigen-ELISA on the 28mer CXCR5 peptide, relative EC50 against the standard; DS in PBS, 3 months at 25°C
# [25] = molecular target: 28mer peptide of the CXCR5 antigen; assay: Antigen ELISA, relative EC50 against the reference; 100 mg/mL formulation, 18 months at +5°C
# [26] = molecular target: 28mer peptide of the CXCR5 antigen; assay: Antigen-ELISA on the 28mer CXCR5 peptide, relative EC50 against the standard; DS in PBS, 1 month at -20°C
binder,measurement,setting,value
B1,"Potency (Antigen ELISA), EC50 value in comparison to reference",[1],75%
same,Ag-ELISA EC50 % (relative to standard),[2],100%
same,"Potency (Antigen ELISA), EC50 value in comparison to reference",[3],97%
same,Ag-ELISA EC50 % (relative to standard),[4],112%
same,"Potency (Antigen ELISA), EC50 value in comparison to reference",[5],127%
same,"Potency (Antigen ELISA), EC50 value in comparison to reference",[6],114%
same,"Potency (Antigen ELISA), EC50 value in comparison to reference",[7],104%
same,"Potency (Antigen ELISA), EC50 value in comparison to reference",[8],107%
same,"Potency (Antigen ELISA), EC50 value in comparison to reference",[9],105%
same,"Potency (Antigen ELISA), EC50 value in comparison to reference",[10],101%
same,"Potency (Antigen ELISA), EC50 value in comparison to reference",[11],75%
same,"Potency (Antigen ELISA), EC50 value in comparison to reference",[12],75%
same,"Potency (Antigen ELISA), EC50 value in comparison to reference",[13],93%
same,"Potency (Antigen ELISA), EC50 value in comparison to reference",[14],96%
same,"Potency (Antigen ELISA), EC50 value in comparison to reference",[15],92%
same,Ag-ELISA EC50 % (relative to standard),[16],83%
same,"Potency (Antigen ELISA), EC50 value in comparison to reference",[17],96%
same,"Potency (Antigen ELISA), EC50 value in comparison to reference",[18],95%
same,Ag-ELISA EC50 % (relative to standard),[19],106%
same,"Potency (Antigen ELISA), EC50 value in comparison to reference",[20],96%
same,Ag-ELISA EC50 % (relative to standard),[21],93%
same,"Potency (Antigen ELISA), EC50 value in comparison to reference",[22],121%
same,"Potency (Antigen ELISA), EC50 value in comparison to reference",[23],84%
same,Ag-ELISA EC50 % (relative to standard),[24],108%
same,"Potency (Antigen ELISA), EC50 value in comparison to reference",[25],119%
same,Ag-ELISA EC50 % (relative to standard),[26],132%
